The target in one test is NS1/2^MNoV (strain not told; partner of the VAPA mutants in Fig. 4A and 4C). As to the kind of experiment: mammalian 2-hybrid (M2H).
Conditions: not given
In the case of “VAPA (mammalian 2-hybrid construct) (from UniProt Q9WV55) H195E; R197E”, the other: Fold Change amounted to 3.28.
Still for that read-out and setting: as for “VAPA (mammalian 2-hybrid construct) (from UniProt Q9WV55) K50E; K52E”, the figure is 1.29; as for “VAPA (mammalian 2-hybrid construct) (from UniProt Q9WV55) K94A; M96A”, 0.95; as for “VAPA (mammalian 2-hybrid construct) (from UniProt Q9WV55) K125E; R127E”, 0.84.
The same measure, in the same setting: as for “VAPA (mammalian 2-hybrid construct) (from UniProt Q9WV55) K161E; H163E”, the figure is 2.43.
The same measure, in the same setting: with “VAPA (mammalian 2-hybrid construct) (from UniProt Q9WV55) R202E; R204E” the figure was 2.78.

The test is the same for the next values; noted with them: n = 3.
“VAPA (mammalian 2-hybrid construct) (from UniProt Q9WV55) C60A”: the other: Fold Change was determined as 3.9.
The same measure, in the same setting: with “VAPA (mammalian 2-hybrid construct) (from UniProt Q9WV55) D123A” the figure was 8.18; with “VAPA (mammalian 2-hybrid construct) (from UniProt Q9WV55) K50A”, 3.11.
On the same count and under the same terms, as for “VAPA (mammalian 2-hybrid construct) (from UniProt Q9WV55) K50E”, the figure is 2.26; as for “VAPA (mammalian 2-hybrid construct) (from UniProt Q9WV55) K52A”, 1.4; as for “VAPA (mammalian 2-hybrid construct) (from UniProt Q9WV55) K52E”, 1.38.
Turning to “VAPA (mammalian 2-hybrid construct) (from UniProt Q9WV55) K94A”, the other: Fold Change turned out to be 1.74.
Same read-out and setting: with “VAPA (mammalian 2-hybrid construct) (from UniProt Q9WV55) K94E” the figure was 1.2; with “VAPA (mammalian 2-hybrid construct) (from UniProt Q9WV55) K125A”, 1.67; with “VAPA (mammalian 2-hybrid construct) (from UniProt Q9WV55) K125E”, 1.47.
Substance “VAPA (mammalian 2-hybrid construct) (from UniProt Q9WV55) M96A” returned an other: Fold Change of 2.72.
Same read-out and setting: with “VAPA (mammalian 2-hybrid construct) (from UniProt Q9WV55) N64A” the figure was 3.82; with “VAPA (mammalian 2-hybrid construct) (from UniProt Q9WV55) R62A”, 3.26; with “VAPA (mammalian 2-hybrid construct) (from UniProt Q9WV55) R62E”, 1.64.
The same measure, in the same setting: with “VAPA (mammalian 2-hybrid construct) (from UniProt Q9WV55) R127A” the figure was 3.1; with “VAPA (mammalian 2-hybrid construct) (from UniProt Q9WV55) R127E”, 2.53.
Still for that read-out and setting: as for “VAPA (mammalian 2-hybrid construct) (from UniProt Q9WV55) T53A”, the figure is 2.94; as for “VAPA (mammalian 2-hybrid construct) (from UniProt Q9WV55) T54A”, 1.78; as for “VAPA (mammalian 2-hybrid construct) (from UniProt Q9WV55) V51A”, 1.66.
As for “VAPA (mammalian 2-hybrid construct) (from UniProt Q9WV55) V61A”, the other: Fold Change worked out at 7.18.

The test is the same for the next values; noted with them: n = 3; parent: est. 170; read off a plot.
Regarding “VAPA (mammalian 2-hybrid construct) (from UniProt Q9WV55) C60A”, the response stood at 61 %fluc/Rluc.
On the same count and under the same terms, with “VAPA (mammalian 2-hybrid construct) (from UniProt Q9WV55) D123A” the figure was 110 %fluc/Rluc.
The same measure, in the same setting: as for “VAPA (mammalian 2-hybrid construct) (from UniProt Q9WV55) K50A”, the figure is 69 %fluc/Rluc; as for “VAPA (mammalian 2-hybrid construct) (from UniProt Q9WV55) K50E”, 41 %fluc/Rluc; as for “VAPA (mammalian 2-hybrid construct) (from UniProt Q9WV55) K52A”, 35 %fluc/Rluc.
The same measure, in the same setting: as for “VAPA (mammalian 2-hybrid construct) (from UniProt Q9WV55) K52E”, the figure is 32 %fluc/Rluc.
“VAPA (mammalian 2-hybrid construct) (from UniProt Q9WV55) K94A”: the response turned out to be 42 %fluc/Rluc.
Consider “VAPA (mammalian 2-hybrid construct) (from UniProt Q9WV55) K94E”, for which the response came out at 38 %fluc/Rluc.
For “VAPA (mammalian 2-hybrid construct) (from UniProt Q9WV55) K125A”, the response was determined as 27 %fluc/Rluc.
On the same count and under the same terms, as for “VAPA (mammalian 2-hybrid construct) (from UniProt Q9WV55) K125E”, the figure is 27 %fluc/Rluc.
The same measure, in the same setting: with “VAPA (mammalian 2-hybrid construct) (from UniProt Q9WV55) M96A” the figure was 63 %fluc/Rluc; with “VAPA (mammalian 2-hybrid construct) (from UniProt Q9WV55) N64A”, 100 %fluc/Rluc; with “VAPA (mammalian 2-hybrid construct) (from UniProt Q9WV55) R62A”, 80 %fluc/Rluc.
Same read-out and setting: with “VAPA (mammalian 2-hybrid construct) (from UniProt Q9WV55) R62E” the figure was 34 %fluc/Rluc; with “VAPA (mammalian 2-hybrid construct) (from UniProt Q9WV55) R127A”, 77 %fluc/Rluc.
For the substance “VAPA (mammalian 2-hybrid construct) (from UniProt Q9WV55) R127E”, the response is 40 %fluc/Rluc.
Regarding “VAPA (mammalian 2-hybrid construct) (from UniProt Q9WV55) T53A”, the response was 75 %fluc/Rluc.
Same read-out and setting: as for “VAPA (mammalian 2-hybrid construct) (from UniProt Q9WV55) T54A”, the figure is 44 %fluc/Rluc; as for “VAPA (mammalian 2-hybrid construct) (from UniProt Q9WV55) V51A”, 32 %fluc/Rluc.
Still for that read-out and setting: with “VAPA (mammalian 2-hybrid construct) (from UniProt Q9WV55) V61A” the figure was 190 %fluc/Rluc.

Staying with this test, now noted: parent: est. 140; read off a plot.
For the substance “VAPA (mammalian 2-hybrid construct) (from UniProt Q9WV55) H195E; R197E”, the response was 85 %fluc/Rluc.
As to “VAPA (mammalian 2-hybrid construct) (from UniProt Q9WV55) K50E; K52E”, the response was 38 %fluc/Rluc.
On to “VAPA (mammalian 2-hybrid construct) (from UniProt Q9WV55) K94A; M96A”, for which the response was 27 %fluc/Rluc.
The same measure, in the same setting: as for “VAPA (mammalian 2-hybrid construct) (from UniProt Q9WV55) K125E; R127E”, the figure is 23 %fluc/Rluc; as for “VAPA (mammalian 2-hybrid construct) (from UniProt Q9WV55) K161E; H163E”, 80 %fluc/Rluc; as for “VAPA (mammalian 2-hybrid construct) (from UniProt Q9WV55) R202E; R204E”, 74 %fluc/Rluc.

The next test deals with VAPA (mammalian 2-hybrid construct) (UniProt Q9WV55). As to the kind of experiment: mammalian 2-hybrid (M2H). As to conditions: n = 3.
VAPA (mammalian 2-hybrid construct), sequence (Q9WV55 whole entry): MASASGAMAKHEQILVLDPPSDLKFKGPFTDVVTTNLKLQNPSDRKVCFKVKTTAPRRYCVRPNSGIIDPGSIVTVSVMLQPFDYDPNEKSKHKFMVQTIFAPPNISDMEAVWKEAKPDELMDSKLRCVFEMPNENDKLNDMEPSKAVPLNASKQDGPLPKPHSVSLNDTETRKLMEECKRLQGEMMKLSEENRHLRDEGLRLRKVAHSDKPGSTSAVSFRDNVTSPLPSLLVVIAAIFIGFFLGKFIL
Regarding “NS1/2^MNoV of strain CR6 (mammalian 2-hybrid construct) D43A”, the other: Fold Change turned out to be 1.35.
Same read-out and setting: with “NS1/2^MNoV of strain CR6 (mammalian 2-hybrid construct) D43K” the figure was 1.07; with “NS1/2^MNoV of strain CR6 (mammalian 2-hybrid construct) D121G”, 7.91.
Still for that read-out and setting: with “NS1/2^MNoV of strain CR6 (mammalian 2-hybrid construct) D131G” the figure was 7.98.
Same read-out and setting: with “NS1/2^MNoV of strain CR6 (mammalian 2-hybrid construct) E40A” the figure was 2.13.
With “NS1/2^MNoV of strain CR6 (mammalian 2-hybrid construct) E40K”, the other: Fold Change was determined as 1.31.
“NS1/2^MNoV of strain CR6 (mammalian 2-hybrid construct) E42A” displayed an other: Fold Change of 1.22.
With “NS1/2^MNoV of strain CR6 (mammalian 2-hybrid construct) E42K”, the other: Fold Change was 1.04.
As for “NS1/2^MNoV of strain CR6 (mammalian 2-hybrid construct) E44A”, the other: Fold Change was 1.78.
Same read-out and setting: as for “NS1/2^MNoV of strain CR6 (mammalian 2-hybrid construct) E44K”, the figure is 0.95; as for “NS1/2^MNoV of strain CR6 (mammalian 2-hybrid construct) E52K”, 1.63; as for “NS1/2^MNoV of strain CR6 (mammalian 2-hybrid construct) E54K”, 3.92.
Same read-out and setting: as for “NS1/2^MNoV of strain CR6 (mammalian 2-hybrid construct) H69L”, the figure is 8.14; as for “NS1/2^MNoV of strain CR6 (mammalian 2-hybrid construct) M48A”, 12.8.
As for “NS1/2^MNoV of strain CR6 (mammalian 2-hybrid construct) M48D”, the other: Fold Change came out at 6.37.
The same measure, in the same setting: as for “NS1/2^MNoV of strain CR6 (mammalian 2-hybrid construct) M48G”, the figure is 11.7.
As to “NS1/2^MNoV of strain CR6 (mammalian 2-hybrid construct) M48I”, the other: Fold Change was 5.16.
Substance “NS1/2^MNoV of strain CR6 (mammalian 2-hybrid construct) M48L” came in with an other: Fold Change of 10.8.
On the same count and under the same terms, with “NS1/2^MNoV of strain CR6 (mammalian 2-hybrid construct) N46C” the figure was 7.96; with “NS1/2^MNoV of strain CR6 (mammalian 2-hybrid construct) N46D”, 10.3.
The substance “NS1/2^MNoV of strain CR6 (mammalian 2-hybrid construct) N46G” gave an other: Fold Change of 10.8.
Same read-out and setting: with “NS1/2^MNoV of strain CR6 (mammalian 2-hybrid construct) T49A” the figure was 1.55; with “NS1/2^MNoV of strain CR6 (mammalian 2-hybrid construct) T49G”, 1.35.
On the same count and under the same terms, as for “NS1/2^MNoV of strain CR6 (mammalian 2-hybrid construct) V45A”, the figure is 8.72; as for “NS1/2^MNoV of strain CR6 (mammalian 2-hybrid construct) V45G”, 8.32; as for “NS1/2^MNoV of strain CR6 (mammalian 2-hybrid construct) V45I”, 5.53.
On the same count and under the same terms, with “NS1/2^MNoV of strain CR6 (mammalian 2-hybrid construct) Y47A” the figure was 1.55.
For the substance “NS1/2^MNoV of strain CR6 (mammalian 2-hybrid construct) Y47G”, the other: Fold Change was 1.25.

Still in this test, the particulars now being: n = 3; parent: est. 170; read off a plot.
Regarding “NS1/2^MNoV of strain CR6 (mammalian 2-hybrid construct) D43A”, the response stood at 40 %fluc/Rluc.
On the same count and under the same terms, as for “NS1/2^MNoV of strain CR6 (mammalian 2-hybrid construct) D43K”, the figure is 30 %fluc/Rluc.
Same read-out and setting: as for “NS1/2^MNoV of strain CR6 (mammalian 2-hybrid construct) D121G”, the figure is 180 %fluc/Rluc.
Still for that read-out and setting: as for “NS1/2^MNoV of strain CR6 (mammalian 2-hybrid construct) D131G”, the figure is 180 %fluc/Rluc.
For “NS1/2^MNoV of strain CR6 (mammalian 2-hybrid construct) E40A”, the response turned out to be 62 %fluc/Rluc.
Turning to “NS1/2^MNoV of strain CR6 (mammalian 2-hybrid construct) E40K”, the response was 45 %fluc/Rluc.
Same read-out and setting: with “NS1/2^MNoV of strain CR6 (mammalian 2-hybrid construct) E42A” the figure was 30 %fluc/Rluc; with “NS1/2^MNoV of strain CR6 (mammalian 2-hybrid construct) E42K”, 28 %fluc/Rluc; with “NS1/2^MNoV of strain CR6 (mammalian 2-hybrid construct) E44A”, 55 %fluc/Rluc.
On the same count and under the same terms, with “NS1/2^MNoV of strain CR6 (mammalian 2-hybrid construct) E44K” the figure was 30 %fluc/Rluc.
For the substance “NS1/2^MNoV of strain CR6 (mammalian 2-hybrid construct) E52K”, the response worked out at 30 %fluc/Rluc.
The same measure, in the same setting: with “NS1/2^MNoV of strain CR6 (mammalian 2-hybrid construct) E54K” the figure was 90 %fluc/Rluc.
The same measure, in the same setting: as for “NS1/2^MNoV of strain CR6 (mammalian 2-hybrid construct) H69L”, the figure is 180 %fluc/Rluc.
The same measure, in the same setting: as for “NS1/2^MNoV of strain CR6 (mammalian 2-hybrid construct) M48A”, the figure is 190 %fluc/Rluc; as for “NS1/2^MNoV of strain CR6 (mammalian 2-hybrid construct) M48D”, 180 %fluc/Rluc; as for “NS1/2^MNoV of strain CR6 (mammalian 2-hybrid construct) M48G”, 250 %fluc/Rluc.
“NS1/2^MNoV of strain CR6 (mammalian 2-hybrid construct) M48I”: the response worked out at 150 %fluc/Rluc.
On the same count and under the same terms, with “NS1/2^MNoV of strain CR6 (mammalian 2-hybrid construct) M48L” the figure was 300 %fluc/Rluc; with “NS1/2^MNoV of strain CR6 (mammalian 2-hybrid construct) N46C”, 220 %fluc/Rluc.
Turning to “NS1/2^MNoV of strain CR6 (mammalian 2-hybrid construct) N46D”, the response came out at 290 %fluc/Rluc.
Same read-out and setting: with “NS1/2^MNoV of strain CR6 (mammalian 2-hybrid construct) N46G” the figure was 300 %fluc/Rluc; with “NS1/2^MNoV of strain CR6 (mammalian 2-hybrid construct) S41G”, 40 %fluc/Rluc.
On the same count and under the same terms, with “NS1/2^MNoV of strain CR6 (mammalian 2-hybrid construct) T49A” the figure was 50 %fluc/Rluc; with “NS1/2^MNoV of strain CR6 (mammalian 2-hybrid construct) T49G”, 30 %fluc/Rluc.
Consider “NS1/2^MNoV of strain CR6 (mammalian 2-hybrid construct) V45A”, for which the response turned out to be 250 %fluc/Rluc.
In the case of “NS1/2^MNoV of strain CR6 (mammalian 2-hybrid construct) V45G”, the response was 240 %fluc/Rluc.
Still for that read-out and setting: with “NS1/2^MNoV of strain CR6 (mammalian 2-hybrid construct) V45I” the figure was 100 %fluc/Rluc; with “NS1/2^MNoV of strain CR6 (mammalian 2-hybrid construct) Y47A”, 45 %fluc/Rluc.
On the same count and under the same terms, as for “NS1/2^MNoV of strain CR6 (mammalian 2-hybrid construct) Y47G”, the figure is 30 %fluc/Rluc.

The values above are taken from article PMC5513711, “Noroviruses Co-opt the Function of Host Proteins VAPA and VAPB for Replication via a Phenylalanine–Phenylalanine-Acidic-Tract-Motif Mimic in Nonstructural Viral Protein NS1/2” (mBio, 2017).
